One test deals with T1, neutravidin (UniProt P02701 25-152).
T1 construct: Capture reagent of the phage ELISA; Wells without biotinylated IL-1Beta served as the negative control
The test is described as follows: phage ELISA on neutravidin coated wells, anti-M13-HRP detection. The procedure:
(§1) Four clones for each Fab were tested to overcome clonal variation (due to bacterial growth, phage production efficiency and toxicity etc. . . . ). Phage ELISA was performed by capturing of biotinylated IL-1Beta on neutravidin coated Maxisorp plate and subsequent incubation of crude phage extract (i.e. bacterial medium). After extensive washing, bound phages were detected with an anti-M13-HRP monoclonal antibody.
Background: In an ELISA, binding on a coated surface is turned into a signal by an enzyme label.

In test [1] the target is T2, biotinylated human IL-1Beta (human, UniProt P01584 117-269, biotinylated (positions not stated)).
T2 construct: In the assays it was biotinylated; also called biot-IL-1Beta
The test is described as follows: phage ELISA: biotinylated IL-1Beta captured on neutravidin, crude phage, anti-M13-HRP. On the procedure:
as §1

In test [2] the target is T2, biotinylated human IL-1Beta. The test is described as follows: phage display selection and phage ELISA on biotinylated IL-1Beta.
The target is the same in test [3]. The test is described as follows: ELISA: Fab captured on anti-myc plate, biotinylated human IL-1Beta, streptavidin-HRP. On the procedure:
For this the Fabs were captured on an anti-myc coated Maxisorp plate. Biotinylated human IL-1Beta was added and bound cytokine was detected using HRP-conjugated streptavidin.
The purified llama and chimeric 1E2 Fabs described above were captured on anti-myc coated maxisorp plates. After incubation with biotinylated human IL-1Beta and extensive washing, the biotinylated IL-1Beta bound to the Fab was detected using HRP-conjugated streptavidin.

Positions count from the first letter of the chain named.

T1 sequence (P02701 25-152): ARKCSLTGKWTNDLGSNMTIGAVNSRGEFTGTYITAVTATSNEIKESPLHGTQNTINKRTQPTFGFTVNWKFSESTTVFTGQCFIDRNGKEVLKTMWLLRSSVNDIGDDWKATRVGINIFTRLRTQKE

B1: safe variant 1F2 (partially humanized, fused to human C-lambda and CH1), Fab displayed on phage (Fab, V domains shown)
VH: EVQLLESGGGLVQPGGSLRLSCAASGFTFSTYAMSWVRQAPGKGPEWVSGINTGGGSTGYADSVKGRFTISRDNSKNTLYLQMNSLRPEDTAVYYCAKDWMATTPWGQGTQVTVSS
VL: QTVVTQEPSFSVSPGGTVTLTCGLSSGSVTTNNYPGWFQQTPGQAPRTLIYNTNNRHSGVPSRFSGSILGNKAALTITGAQADDESDYYCALYMSSGSNNAVFGGGTKLTVLG
notes: also called safe 1F2
In the case of B1, the binding result with neutravidin is reported as “no binding”.

B2: wt 1F2 (llama VL and VH fused to human C-lambda and CH1), Fab displayed on phage (Fab, V domains shown)
VH: B1 VH with L5V, S75A, R87K
VL: B1 VL with T2A, F10L, L69S, A82P, D83E, S86A, K108H
notes: Tested as a gene3-Fab fusion on phage (crude phage extract)
As to B2, the binding result with neutravidin is “no binding”.

B3: hum 1F2 (fully humanized VL and VH fused to human C-lambda and CH1), Fab displayed on phage (Fab, V domains shown)
VH: B1 VH with P45L, P88A, Q111L
VL: B1 VL with F38Y, H57S, S62D
notes: Tested as a gene3-Fab fusion on phage
Take B3: the binding result is “no binding” in the test with neutravidin and “binds” in test [1].

B4: Fab 1F2 (llama Fab selected against IL-1Beta) (Fab, V domains shown)
VH: B1 VH with L5V, S75A, R87K
VL: B1 VL with T2A, F10L, L69S, A82P, D83E, S86A, K108H
notes: Original clone from the llama Fab phage library
As to B4, in test [2], the binding result is on record as “binds”.

B5: chimeric 1E2 Fab (llama VL and VH of 1E2 fused to human C-lambda and CH1) (Fab, V domains shown)
VH: EVQLVESGGGLVQPGGSLRLSCTASGFTFSNYWMYWVRQAPGKGLEWVSAINAAGSTYYADSVKGRFTISRDNAKNTLYLQMNSLQSEDTALYYCANLPRWGQGTQVTVSS
VL: QTVVTQEPSLSVSPGGTVTLTCGLSSGSVTSGNYPGWYQQKPGQAPRTLIYNTNSRYSGVPNRFSGSISGNKAALTITGAQPEDEADYYCAVYIGSSSYPVVFGGGTHLTVLG
notes: Purified from E. coli (pCB5, no gene3); Myc and hexahistidine tags on the Fd; also called wt 1E2
In the case of B5, in test [3], the binding result was “binds”.

B6: wt 1E2 (llama VL and VH fused to human C-lambda and CH1), Fab displayed on phage (Fab, V domains shown)
VH: B5 VH
VL: B5 VL
notes: as for B3
For B6, the binding result in the test with neutravidin was “no binding”.

B7: hum 1E2 (fully humanized VL and VH fused to human C-lambda and CH1), Fab displayed on phage (Fab, V domains shown)
VH: B5 VH with T23A, A74S, Q86R, S87A, L92V, Q106L
VL: B5 VL with L10F, K41T, Y57S, N62D, S69L, P82A, E83D, A86S, H108K
notes: as for B3
Regarding B7, the binding result with neutravidin is “no binding”.

B8: wild type llama 1E2 Fab (Fab, V domains shown)
VH: B5 VH
VL: B5 VL
notes: Produced from phagemid pCB3; Hexahistidine and myc tags at the C-terminus of the Fd; Captured by anti-myc; also called Fab 1E2
Regarding B8, the binding result in test [2] is given as “binds”.

B9: Fab 1E2 wt VL / safe VH (with human CL and human CH1) (Fab, V domains shown)
VH: B5 VH with T23A, A74S, L92V
VL: B5 VL
notes: Purified from E. coli; also called wt/safe; wt VA/safe VH
With B9, the binding result in test [3] is recorded as “binds”.

B10: Fab 1E2 wt VL / hum VH (with human CL and human CH1) (Fab, V domains shown)
VH: B5 VH with T23A, A74S, Q86R, S87A, L92V, Q106L
VL: B5 VL
notes: Purified from E. coli; also called wt/hum; wt VA/hum VH
B10: the binding result in test [3] is reported as “binds”.

B11: safe variant 1E2 (partially humanized, fused to human C-lambda and CH1), Fab displayed on phage (Fab, V domains shown)
VH: B5 VH with T23A, A74S, L92V
VL: B5 VL with L10F, Y57S, N62D, S69L, E83D, A86S
notes: also called safe 1E2
As to B11, in the test with neutravidin, the binding result was “no binding”.
